Ends that are not written are not given here. * marks the point of attachment. C16 diacid = O=C(O)CCCCCCCCCCCCCCC(=O)*
Experiments:
human GIP receptor [1] = biological target: T1, human GIP receptor (human, UniProt P48546 22-466); test: 125I-hGIP competition binding, COS-7 cells expressing hGIPR;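 also: nonspecific binding taken as radioligand bound by untransfected cells, binding buffer with or without 2% HSA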
T1 construct: whole, on cells; also called hGIPR
T1 sequence (looked up): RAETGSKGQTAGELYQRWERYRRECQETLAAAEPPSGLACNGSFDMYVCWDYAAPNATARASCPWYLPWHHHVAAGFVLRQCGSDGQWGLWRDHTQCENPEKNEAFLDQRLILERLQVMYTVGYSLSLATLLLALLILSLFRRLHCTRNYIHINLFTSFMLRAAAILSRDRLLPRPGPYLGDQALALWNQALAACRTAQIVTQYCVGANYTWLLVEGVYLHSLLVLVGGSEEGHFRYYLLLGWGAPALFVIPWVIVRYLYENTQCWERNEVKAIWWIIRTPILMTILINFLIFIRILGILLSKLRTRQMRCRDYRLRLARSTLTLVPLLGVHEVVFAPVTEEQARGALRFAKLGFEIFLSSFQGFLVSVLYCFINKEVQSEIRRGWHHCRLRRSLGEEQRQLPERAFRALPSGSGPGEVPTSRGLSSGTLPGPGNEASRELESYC
Method: (§1) After incubation, the cells were washed twice in ice-cold binding buffer (+/−2% HSA) and lysed using 200 mM NaOH with 1% SDS for 30 min. Nonspecific binding was determined as the binding of radioactive ligand to untransfected cells.

human GIP receptor [2] = biological target: T1, human GIP receptor; test: 125I-hGIP competition binding, COS-7/hGIPR, 2% HSA;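 also: nonspecific binding defined as radioligand binding to untransfected cells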
Method: as §1

human GIP receptor [3] = biological target: T1, human GIP receptor; test: IC50 with 2% HSA over IC50 with 0.1% casein, 125I-hGIP competition, COS-7/hGIPR
Method: as §1

human GIP receptor [4] = biological target: T1, human GIP receptor; test: cell-based or functional assay
human GIP receptor [5] = biological target: T1, human GIP receptor; test: 125I-hGIP competition binding, COS-7/hGIPR, 0.1% casein;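 also: nonspecific binding defined as radioligand binding measured on untransfected cells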
Method: as §1

B1: AT183 [hGIP(5-30)NH2[V23K]-C16diacid/23] (peptide)
peptide: TFISDYSIAMDKIHQQDFK(C16 diacid)NWLLAQK-NH2
modifications: N-terminus assumed
SMILES: CC[C@H](C)[C@H](NC(=O)[C@H](CO)NC(=O)[C@H](Cc1ccc(O)cc1)NC(=O)[C@H](CC(=O)O)NC(=O)[C@H](CO)NC(=O)[C@@H](NC(=O)[C@H](Cc1ccccc1)NC(=O)[C@@H](N)[C@@H](C)O)[C@@H](C)CC)C(=O)N[C@@H](C)C(=O)N[C@@H](CCSC)C(=O)N[C@@H](CC(=O)O)C(=O)N[C@@H](CCCCN)C(=O)N[C@H](C(=O)N[C@@H](Cc1c[nH]cn1)C(=O)N[C@@H](CCC(N)=O)C(=O)N[C@@H](CCC(N)=O)C(=O)N[C@@H](CC(=O)O)C(=O)N[C@@H](Cc1ccccc1)C(=O)N[C@@H](CCCCNC(=O)CCCCCCCCCCCCCCC(=O)O)C(=O)N[C@@H](CC(N)=O)C(=O)N[C@@H](Cc1c[nH]c2ccccc12)C(=O)N[C@@H](CC(C)C)C(=O)N[C@@H](CC(C)C)C(=O)N[C@@H](C)C(=O)N[C@@H](CCC(N)=O)C(=O)N[C@@H](CCCCN)C(N)=O)[C@@H](C)CC
IC50 (human GIP receptor [1]): 7130 nM
log IC50 (human GIP receptor [1]): -5.1 log M
IC50 (human GIP receptor [2]): 1700 nM
logIC50 (human GIP receptor [2]): -5.8 log M
Fold change HSA (2%)/Casein (0.1%) (human GIP receptor [3]): 1.8 fold
cAMP agonism, Emax (human GIP receptor [4]): 0
cAMP antagonism (human GIP receptor [4]): 1770 nM
cAMP antagonism, log (human GIP receptor [4]): -5.8 log M
IC50 (human GIP receptor [5]): 955 nM
logIC50 (human GIP receptor [5]): -6 log M

B2: AT184 [hGIP(5-30)NH2[N24K]-C16diacid/24] (peptide)
peptide: TFISDYSIAMDKIHQQDFVK(C16 diacid)WLLAQK-NH2
modifications: N-terminus assumed
SMILES: CC[C@H](C)[C@H](NC(=O)[C@H](CO)NC(=O)[C@H](Cc1ccc(O)cc1)NC(=O)[C@H](CC(=O)O)NC(=O)[C@H](CO)NC(=O)[C@@H](NC(=O)[C@H](Cc1ccccc1)NC(=O)[C@@H](N)[C@@H](C)O)[C@@H](C)CC)C(=O)N[C@@H](C)C(=O)N[C@@H](CCSC)C(=O)N[C@@H](CC(=O)O)C(=O)N[C@@H](CCCCN)C(=O)N[C@H](C(=O)N[C@@H](Cc1c[nH]cn1)C(=O)N[C@@H](CCC(N)=O)C(=O)N[C@@H](CCC(N)=O)C(=O)N[C@@H](CC(=O)O)C(=O)N[C@@H](Cc1ccccc1)C(=O)N[C@H](C(=O)N[C@@H](CCCCNC(=O)CCCCCCCCCCCCCCC(=O)O)C(=O)N[C@@H](Cc1c[nH]c2ccccc12)C(=O)N[C@@H](CC(C)C)C(=O)N[C@@H](CC(C)C)C(=O)N[C@@H](C)C(=O)N[C@@H](CCC(N)=O)C(=O)N[C@@H](CCCCN)C(N)=O)C(C)C)[C@@H](C)CC
IC50 (human GIP receptor [1]): 247 nM
log IC50 (human GIP receptor [1]): -6.6 log M
IC50 (human GIP receptor [2]): 11200 nM
logIC50 (human GIP receptor [2]): -5 log M
Fold change HSA (2%)/Casein (0.1%) (human GIP receptor [3]): 1.6 fold
cAMP agonism, Emax (human GIP receptor [4]): 0
cAMP antagonism (human GIP receptor [4]): 91 nM
cAMP antagonism, log (human GIP receptor [4]): -7 log M
IC50 (human GIP receptor [5]): 7080 nM
logIC50 (human GIP receptor [5]): -5.2 log M

B3: AT185 [hGIP(5-30)NH2[W25K]-C16diacid/25] (peptide)
peptide: TFISDYSIAMDKIHQQDFVNK(C16 diacid)LLAQK-NH2
modifications: N-terminus assumed
SMILES: CC[C@H](C)[C@H](NC(=O)[C@H](CO)NC(=O)[C@H](Cc1ccc(O)cc1)NC(=O)[C@H](CC(=O)O)NC(=O)[C@H](CO)NC(=O)[C@@H](NC(=O)[C@H](Cc1ccccc1)NC(=O)[C@@H](N)[C@@H](C)O)[C@@H](C)CC)C(=O)N[C@@H](C)C(=O)N[C@@H](CCSC)C(=O)N[C@@H](CC(=O)O)C(=O)N[C@@H](CCCCN)C(=O)N[C@H](C(=O)N[C@@H](Cc1c[nH]cn1)C(=O)N[C@@H](CCC(N)=O)C(=O)N[C@@H](CCC(N)=O)C(=O)N[C@@H](CC(=O)O)C(=O)N[C@@H](Cc1ccccc1)C(=O)N[C@H](C(=O)N[C@@H](CC(N)=O)C(=O)N[C@@H](CCCCNC(=O)CCCCCCCCCCCCCCC(=O)O)C(=O)N[C@@H](CC(C)C)C(=O)N[C@@H](CC(C)C)C(=O)N[C@@H](C)C(=O)N[C@@H](CCC(N)=O)C(=O)N[C@@H](CCCCN)C(N)=O)C(C)C)[C@@H](C)CC
IC50 (human GIP receptor [1]): 87 nM
log IC50 (human GIP receptor [1]): -7.1 log M
IC50 (human GIP receptor [2]): 1150 nM
logIC50 (human GIP receptor [2]): -5.9 log M
Fold change HSA (2%)/Casein (0.1%) (human GIP receptor [3]): 4.7 fold
cAMP agonism (human GIP receptor [4]): 44 nM
cAMP agonism, EC50 (log) (human GIP receptor [4]): -7 log M
cAMP agonism, Emax (human GIP receptor [4]): 18
cAMP antagonism (human GIP receptor [4]): 44 nM
cAMP antagonism, log (human GIP receptor [4]): -7.4 log M
IC50 (human GIP receptor [5]): 246 nM
logIC50 (human GIP receptor [5]): -6.6 log M

Reference: US20200087373A1 (UNIVERSITY OF COPENHAGEN, published 2020)
